B1: C-terminus of INTS3 (INTS3c), residues 560–905 and 915–995 (domain or fragment, human)
chain 1: TVVEEPVDITPYLDQLDESLRDKVLQLQKGSDTEAQCEVMQEIVDQVLEEDFDSEQLSVLASCLQELFKAHFRGEVLPEEITEESLEESVGKPLYLIFRNLCQMQEDNSSFSLLLDLLSELYQKQPKIGYHLLYYLRASKAAAGKMNLYESFAQATQLGDLHTCLMMDMKACQEDDVRLLCHLTPSIYTEFPDETLRSGELLNMIVAVIDSAQLQELVCHVMMGNLVMFRKDSVLNILIQSLDWETFEQYCAWQLFLAHNIPLETIIPILQHLKYKEHPEALSCLLLQLRREKPSEEMVKMVLSRPCHPDDQFTTSILRHWCMKHDELLAEHIKSLLIKNNSLPRK
chain 2: KLAQLTLEQILEHLDNLRLNLTNTKQNFFSQTPILQALQHVQASCDEAHKMKFSDLFSLAEEYEDSSTKPPKSRRKAALSS
notes: Two polypeptides of one protein, co-expressed; residues 906-914 are absent; A selenomethionine form was used for phasing (2.6 Å); the final structure is of native crystals (2.4 Å); copies: 2 + 2
B2: C-terminus of INTS6 (INTS6c), residues 800–887 (domain or fragment, human, UniProt Q9UL03 800-887, looked up)
chain: MHCRSHEEVNTELKAQIMKEIRKPGRKYERIFTLLKHVQGSLQTRLIFLQNVIKEASRFKKRMLIEQLENFLDEIHRRANQINHINSN
notes: integrator complex subunit 6 (INTS6), human, residues 800-887; Cloned into pGEX-6p-1
B3: INTS3(1−995) (domain or fragment, human, UniProt Q68E01 1-995, looked up)
chain: MELQKGKGAAAAAAASGAAGGGGGGAGAGAPGGGRLLLSTSLDAKDELEERLERCMSIVTSMTAGVSEREANDALNAYVCKGLPQHEEICLGLFTLILTEPAQAQKCYRDLALVSRDGMNIVLNKINQILMEKYLKLQDTCRTQLVWLVRELVKSGVLGADGVCMTFMKQIAGGGDVTAKNIWLAESVLDILTEQREWVLKSSILIAMAVYTYLRLIVDHHGTAQLQALRQKEVDFCISLLRERFMECLMIGRDLVRLLQNVARIPEFELLWKDIIHNPQALSPQFTGILQLLQSRTSRKFLACRLTPDMETKLLFMTSRVRFGQQKRYQDWFQRQYLSTPDSQSLRCDLIRYICGVVHPSNEVLSSDILPRWAIIGWLLTTCTSNVAASNAKLALFYDWLFFSPDKDSIMNIEPAILVMHHSMKPHPAITATLLDFMCRIIPNFYPPLEGHVRQGVFSSLNHIVEKRVLAHLAPLFDNPKLDKELRAMLREKFPEFCSSPSPPVEVKIEEPVSMEMDNHMSDKDESCYDNAEAAFSDDEEDLNSKGKKREFRFHPIKETVVEEPVDITPYLDQLDESLRDKVLQLQKGSDTEAQCEVMQEIVDQVLEEDFDSEQLSVLASCLQELFKAHFRGEVLPEEITEESLEESVGKPLYLIFRNLCQMQEDNSSFSLLLDLLSELYQKQPKIGYHLLYYLRASKAAAGKMNLYESFAQATQLGDLHTCLMMDMKACQEDDVRLLCHLTPSIYTEFPDETLRSGELLNMIVAVIDSAQLQELVCHVMMGNLVMFRKDSVLNILIQSLDWETFEQYCAWQLFLAHNIPLETIIPILQHLKYKEHPEALSCLLLQLRREKPSEEMVKMVLSRPCHPDDQFTTSILRHWCMKHDELLAEHIKSLLIKNNSLPRKRQSLRSSSSKLAQLTLEQILEHLDNLRLNLTNTKQNFFSQTPILQALQHVQASCDEAHKMKFSDLFSLAEEYEDSSTKPPKSRRKAALSS
notes: The complex with hSSB1 was held on an NTA chip for SPR with DNA, so one of its chains may carry a His tag; source: co-expressed with hSSB1 and purified

What was measured:
INTS3(1-995);hSSB1 [1] = molecular target: T1, INTS3(1-995);hSSB1 (human;human, UniProt Q68E01-2;Q9BQ15 1-995;1-211, |); assay: EMSA; comparable affinities among the three; EMSA: 50 mM NaCl, 20 mM HEPES pH 7.5, 1 mM MgCl2, 0.5 mM EDTA, 0.2 mM DTT, on ice 1 h; SPR: 200 mM NaCl, 40 mM HEPES pH 7.5, 50 uM EDTA, 25 C; settings: protein: recombinant;recombinant; tags: ;; chain copies: 2;2
T1 sequence (Q9BQ15 whole entry, one chain of several): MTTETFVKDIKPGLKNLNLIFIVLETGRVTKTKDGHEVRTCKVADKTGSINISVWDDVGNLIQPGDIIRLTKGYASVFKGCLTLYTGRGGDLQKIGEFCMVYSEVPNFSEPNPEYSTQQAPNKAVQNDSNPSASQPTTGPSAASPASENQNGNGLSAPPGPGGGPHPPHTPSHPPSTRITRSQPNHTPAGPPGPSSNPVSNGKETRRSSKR

hSSB1 [2] = molecular target: T2, hSSB1 (human, UniProt Q9BQ15 1-211); assay: as above; settings: protein: recombinant
T2 sequence (Q9BQ15 whole entry): as the sequence (Q9BQ15 whole entry, one chain of several) above

[3] = molecular target: T3, INTS3(1-500) (INTS3N);hSSB1 (human;human, UniProt Q68E01-2;Q9BQ15 1-500;1-211, |); assay: as above; settings: protein: recombinant;recombinant; tags: ;; copies: 1;1
T3 sequence (Q9BQ15 whole entry, one chain of several): as above

INTS3(1-995);hSSB1 [4] = molecular target: T1, INTS3(1-995);hSSB1; assay: SPR; KD only in Fig. S5c; EMSA: 50 mM NaCl, 20 mM HEPES pH 7.5, 1 mM MgCl2, 0.5 mM EDTA, 0.2 mM DTT, on ice 1 h; SPR: 200 mM NaCl, 40 mM HEPES pH 7.5, 50 uM EDTA, 25 C; settings: protein: recombinant;recombinant; tags: ;; chain copies: 2;2
INTS3 full length;hSSB1 = INTS3 full length;hSSB1 (human;human, UniProt Q68E01-2;Q9BQ15 1-1042;1-211, |); assay: SPR; KD only in Fig. S5d; EMSA: 50 mM NaCl, 20 mM HEPES pH 7.5, 1 mM MgCl2, 0.5 mM EDTA, 0.2 mM DTT, on ice 1 h; SPR: 200 mM NaCl, 40 mM HEPES pH 7.5, 50 uM EDTA, 25 C; settings: protein: recombinant;recombinant; tags: ;; copies: 1;1
INTS3 full length;hSSB1, sequence (Q9BQ15 whole entry, one chain of several): as above

[5] = molecular target: T3, INTS3(1-500) (INTS3N);hSSB1; assay: SPR; comparable to hSSB1 alone; KD only in Fig. S5b; EMSA: 50 mM NaCl, 20 mM HEPES pH 7.5, 1 mM MgCl2, 0.5 mM EDTA, 0.2 mM DTT, on ice 1 h; SPR: 200 mM NaCl, 40 mM HEPES pH 7.5, 50 uM EDTA, 25 C; settings: protein: recombinant;recombinant; tags: ;; copies: 1;1
hSSB1 [6] = molecular target: T2, hSSB1; assay: SPR; hSSB1 immobilized; comparable to INTS3(1-500)/hSSB1; KD only in Fig. S5a; EMSA: 50 mM NaCl, 20 mM HEPES pH 7.5, 1 mM MgCl2, 0.5 mM EDTA, 0.2 mM DTT, on ice 1 h; SPR: 200 mM NaCl, 40 mM HEPES pH 7.5, 50 uM EDTA, 25 C; settings: protein: recombinant
INTS3c = INTS3c (human, UniProt Q68E01-2;Q68E01-2 560-905;915-995); assay: EMSA; INTS3c alone unable to bind ssDNA; method inferred; EMSA: 50 mM NaCl, 20 mM HEPES pH 7.5, 1 mM MgCl2, 0.5 mM EDTA, 0.2 mM DTT, on ice 1 h; SPR: 200 mM NaCl, 40 mM HEPES pH 7.5, 50 uM EDTA, 25 C; settings: protein: recombinant; tags: GST removed
INTS3c, sequence (Q68E01 916-996, chain 2 of 2, one chain of several): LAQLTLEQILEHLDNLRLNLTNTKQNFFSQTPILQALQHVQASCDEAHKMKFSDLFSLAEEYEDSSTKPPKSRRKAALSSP

INTS3(1-995);hSSB1 [7] = molecular target: T1, INTS3(1-995);hSSB1; assay: EMSA; 1 mM MgCl2; EMSA: 50 mM NaCl, 20 mM HEPES pH 7.5, 1 mM MgCl2, 0.5 mM EDTA, 0.2 mM DTT, on ice 1 h; SPR: 200 mM NaCl, 40 mM HEPES pH 7.5, 50 uM EDTA, 25 C; settings: protein: recombinant;recombinant; tags: ;; chain copies: 2;2; label: 6-FAM (printed 6'-carboxy-fluorescein)
[8] = molecular target: INTS3(1-995);hSSB1;INTS6c (human;human;human, UniProt Q68E01-2;Q9BQ15;Q9UL03 1-995;1-211;800-887, ||); assay: EMSA; 1 mM MgCl2; INTS6c 1:1, no effect on binding; EMSA: 50 mM NaCl, 20 mM HEPES pH 7.5, 1 mM MgCl2, 0.5 mM EDTA, 0.2 mM DTT, on ice 1 h; SPR: 200 mM NaCl, 40 mM HEPES pH 7.5, 50 uM EDTA, 25 C; settings: protein: recombinant;recombinant;recombinant; tags: ;;GST removed; chain copies: 2;2;2; label: 6-FAM (printed 6'-carboxy-fluorescein)
INTS3(1-995);hSSB1;INTS6c, sequence (Q9BQ15 whole entry, one chain of several): as the sequence (Q9BQ15 whole entry, one chain of several) above

[9] = molecular target: the molecule itself; assay: crystal structure; INTS3c/INTS6c complex from purified parts, crystallised in 1.7 M ammonium citrate tribasic pH 7.0, 4% v/v pentaerythritol ethoxylate; SAD on selenomethionine INTS3c, native data to 2.4 Å
[10] = molecular target: B1; assay: as above; settings: both partners purified
[11] = molecular target: the molecule itself; assay: SEC; analytical size-exclusion chromatography of co-expressed and purified INTS3-hSSB1 complexes (Supplementary Fig. S2)

TTTTTTTTTTTT (ssDNA) [dT12]: binds (INTS3(1-995);hSSB1 [1]); binds (hSSB1 [2]); binds [3].

TTTTTTTTTTTTTTTTTTTTTTTTTTTTTTTTTTTTTTTTTTTTTTTT (ssDNA) [dT48]: binds (INTS3(1-995);hSSB1 [4]); binds (INTS3 full length;hSSB1); binds [5]. TTTTTTTTTTTTTTTTTTTTTTTTTTTTTTTTTTTTTTTTTTTTTTTT (ssDNA) [dT48]: binds (hSSB1 [6]).

TTTTTTTTTTTTTTTTTTTTTTTTTTTTTTTTTTTTTTTTTTTTTTTT (ssDNA) [ssDNA of Fig. S4d]: no binding (INTS3c).

TTTTTTTTTTTTTTTTTTTTTTTTTTTTTTTTTTTTTTTTTTTTTTTT (ssDNA) [dT48 (FAM)]: binds (INTS3(1-995);hSSB1 [7]); binds [8].

With B1 the “stoichiometry N” value [9] was 2.

B2 was tested, and the “stoichiometry N” value [10] was 2 INTS3c:INTS6c.

For B3, the “stoichiometry N” value [11] was 2.

From PMC8368002, “Crystal structure of the INTS3/INTS6 complex reveals the functional importance of INTS3 dimerization in DSB repair” (Cell Discovery, 2020)
